In US20130011378A1, “Stable formulations of a hyaluronan-degrading enzyme” (priority 2011, published 2013):

Key:
[1] = biological target: T1, rHuPH20 (Homo sapiens, UniProt P38567); experiment: Determination of hyaluronidase activity of rHuPH20, turbidimetric assay (Example 2, variant not specified); format: biochemical; conditions: for rHuPH20 enzymatic activity: 2-8° C.
T1 construct: made in house; host or cells: CHO cells (DG44 CHO, HZ24 plasmid, clone 2B2)
T1 sequence (P38567 36-482): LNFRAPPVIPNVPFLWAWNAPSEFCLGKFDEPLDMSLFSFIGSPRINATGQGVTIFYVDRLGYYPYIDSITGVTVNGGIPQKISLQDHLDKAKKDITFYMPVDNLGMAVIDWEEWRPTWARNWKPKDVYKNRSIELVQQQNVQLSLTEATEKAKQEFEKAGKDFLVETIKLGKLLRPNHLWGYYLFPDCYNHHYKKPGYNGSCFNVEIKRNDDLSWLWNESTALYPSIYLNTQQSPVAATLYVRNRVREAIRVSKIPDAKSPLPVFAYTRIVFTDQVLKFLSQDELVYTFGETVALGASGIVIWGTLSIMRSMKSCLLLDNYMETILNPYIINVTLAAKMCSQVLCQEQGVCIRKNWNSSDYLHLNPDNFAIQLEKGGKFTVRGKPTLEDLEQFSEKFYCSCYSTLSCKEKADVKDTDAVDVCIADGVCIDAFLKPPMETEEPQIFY

[2] = biological target: T1, rHuPH20; experiment: Differential scanning calorimetry: Tm of rHuPH20; format: physicochemical; conditions: in the presence of […] m-cresol

B1: rHuPH20: secreted soluble recombinant human PH20 expressed in CHO cells; nucleic acid encodes amino acids 36-482 of SEQ ID NO:1 (protein, listed as Homo sapiens)
chain: T1 sequence (P38567 36-482)
modifications: precursor human PH20
**Q.** B1 was tested. Which rHuPH20 enzymatic activity ([1]; 5 Months, pH 7.0, NaCl 50 mM) did it give?
**A.** 494.4796

**Q.** What about the rHuPH20 enzymatic activity ([1]; 5 Months, pH 7.0, NaCl 80 mM) of the same molecule?
**A.** 575.3274

**Q.** And the rHuPH20 enzymatic activity ([1]; 5 Months, pH 7.0, NaCl 110 mM)?
**A.** 615.3546

**Q.** What about the rHuPH20 enzymatic activity ([1]; 5 Months, pH 7.0, NaCl 140 mM) of the same molecule?
**A.** 582.4274

**Q.** What about the rHuPH20 enzymatic activity ([1]; 5 Months, pH 7.2, NaCl 50 mM) of the same molecule?
**A.** 481.6035

**Q.** And the rHuPH20 enzymatic activity ([1]; 5 Months, pH 7.2, NaCl 80 mM)?
**A.** 566.2521

**Q.** What about the rHuPH20 enzymatic activity ([1]; 5 Months, pH 7.2, NaCl 110 mM) of the same molecule?
**A.** 593.2027

**Q.** And the rHuPH20 enzymatic activity ([1]; 5 Months, pH 7.2, NaCl 140 mM)?
**A.** 585.9948

**Q.** What about the rHuPH20 enzymatic activity ([1]; 5 Months, pH 7.4, NaCl 50 mM) of the same molecule?
**A.** 526.6628

**Q.** What about the rHuPH20 enzymatic activity ([1]; 5 Months, pH 7.4, NaCl 80 mM) of the same molecule?
**A.** 564.7769

**Q.** What about the rHuPH20 enzymatic activity ([1]; 5 Months, pH 7.4, NaCl 110 mM) of the same molecule?
**A.** 618.3856

**Q.** And the rHuPH20 enzymatic activity ([1]; 5 Months, pH 7.4, NaCl 140 mM)?
**A.** 585.9813

**Q.** And the rHuPH20 enzymatic activity ([1]; 5 Months, pH 7.6, NaCl 50 mM)?
**A.** 508.0571

**Q.** What about the rHuPH20 enzymatic activity ([1]; 5 Months, pH 7.6, NaCl 80 mM) of the same molecule?
**A.** 546.4209

**Q.** And the rHuPH20 enzymatic activity ([1]; 5 Months, pH 7.6, NaCl 110 mM)?
**A.** 581.6326

**Q.** What about the rHuPH20 enzymatic activity ([1]; 5 Months, pH 7.6, NaCl 140 mM) of the same molecule?
**A.** 594.6197

**Q.** What about the rHuPH20 enzymatic activity ([1]; 9 Months, pH 7.0, NaCl 50 mM) of the same molecule?
**A.** 436.5115

**Q.** What about the rHuPH20 enzymatic activity ([1]; 9 Months, pH 7.0, NaCl 80 mM) of the same molecule?
**A.** 513.9692

**Q.** What about the rHuPH20 enzymatic activity ([1]; 9 Months, pH 7.0, NaCl 110 mM) of the same molecule?
**A.** 551.0218

**Q.** And the rHuPH20 enzymatic activity ([1]; 9 Months, pH 7.0, NaCl 140 mM)?
**A.** 554.6513

**Q.** What about the rHuPH20 enzymatic activity ([1]; 9 Months, pH 7.2, NaCl 50 mM) of the same molecule?
**A.** 451.8324

**Q.** What about the rHuPH20 enzymatic activity ([1]; 9 Months, pH 7.2, NaCl 80 mM) of the same molecule?
**A.** 518.0740

**Q.** And the rHuPH20 enzymatic activity ([1]; 9 Months, pH 7.2, NaCl 110 mM)?
**A.** 553.1847

**Q.** And the rHuPH20 enzymatic activity ([1]; 9 Months, pH 7.2, NaCl 140 mM)?
**A.** 536.7846

**Q.** What about the rHuPH20 enzymatic activity ([1]; 9 Months, pH 7.4, NaCl 50 mM) of the same molecule?
**A.** 466.1871

**Q.** What about the rHuPH20 enzymatic activity ([1]; 9 Months, pH 7.4, NaCl 80 mM) of the same molecule?
**A.** 509.9032

**Q.** What about the rHuPH20 enzymatic activity ([1]; 9 Months, pH 7.4, NaCl 110 mM) of the same molecule?
**A.** 560.4847

**Q.** What about the rHuPH20 enzymatic activity ([1]; 9 Months, pH 7.4, NaCl 140 mM) of the same molecule?
**A.** 542.4534

**Q.** And the rHuPH20 enzymatic activity ([1]; 9 Months, pH 7.6, NaCl 50 mM)?
**A.** 464.8964

**Q.** And the rHuPH20 enzymatic activity ([1]; 9 Months, pH 7.6, NaCl 80 mM)?
**A.** 515.3382

**Q.** What about the rHuPH20 enzymatic activity ([1]; 9 Months, pH 7.6, NaCl 110 mM) of the same molecule?
**A.** 531.9202

**Q.** What about the rHuPH20 enzymatic activity ([1]; 9 Months, pH 7.6, NaCl 140 mM) of the same molecule?
**A.** 523.5385

**Q.** What about the “time rHuPH20 stable” value ([1]; 5° C., […] m-cresol, […] phenol, pH 7.0-7.6, 50-140 mM NaCl) of the same molecule?
**A.** 12 months

**Q.** And the “reduction of Tm of rHuPH20 by DSC” value [2]?
**A.** about 2 °C
